Experimental data taken from publication PMC6525113.

Biological target: Human methylmalonyl-CoA epimerase, wild-type (human) (UniProt Q96PE7)
Test: not stated; solution data (Supplemental Fig. S2)

stoichiometry N: 2
Substance: Human methylmalonyl-CoA epimerase, wild-type (from UniProt Q96PE7 45-176) (enzyme)
